These results are taken from patent publication US11542537B2, “High-purity steviol glycosides” (PureCircle Sdn Bhd, priority 2012, dated 2023).

Common to all, as to assay type: biochemical
Data set [1] in a line: Catalytic test of in-vitro expressed UDP-glucosyltransferases, Rebaudioside A to Rebaudioside D (HPLC CAD). Particulars: 0.5 mM Rebaudioside A, 30° C., T24h sample; for Steviol glycoside conversion in reaction mixture: Reb UNK: Reb UNK later identified as reb D2; for Steviol glycoside conversion in reaction mixture: Reb A: remaining substrate. On the procedure: 18 μL of plasmid solution (containing approximately 1.5 μg of plasmid) was used for in-vitro expression according to the Promega S30 T7 High-Yield Protein Expression System (ref: L1110) kit. The expression medium was produced as follows:
The prepared expression medium mix was added to the plasmid solution and the solution was allowed to incubate at 30° C. for 3 hours while mixing the mixture every 45 minutes. 5 μL of the mixture was frozen whereas the remainder was used for the catalytic test for the conversion of Rebaudioside A to Rebaudioside D.
430 μL of a reaction mixture containing 0.5 mM Rebaudioside A, 3 mM MgCl2, 50 mM phosphate buffer (pH7.2) and 2.5 mM UDP-glucose was added to a 1.5 mL sterile microtube. 52 μL of the enzyme expression medium was added and the resulting mixture was allowed to react at 30° C. for 24 hours. 125 μL samples were taken after 2 hours, 16 hours and 24 hours and added to a 115 μL of 60% methanol and 10 μL of 2 N H2SO4. The quenched sample was centrifuged at 18,000 g for 2 minutes at RT. 200 μL was transferred to an HPLC vial and analyzed.
The HPLC assay was performed as follows:
430 μL of a reaction mixture containing 0.5 mM Rebaudioside A, 3 mM MgCl2, 50 mM phosphate buffer (pH7.2) and 2.5 mM UDP-glucose was added to a 1.5 mL sterile microtube. 52 μL of the enzyme expression medium was added and the resulting mixture was allowed to react at 30° C. for 24 hours. 125 μL samples were taken after 2 hours, 16 hours and 24 hours and added to a 115 μL of 60% methanol and 10 μL of 2 N H2SO4. The quenched sample was centrifuged at 18,000 g for 2 minutes at RT.
The HPLC assay was performed as described in EXAMPLE 20.

A short description of data set [2]: Activity for Rubusoside to Rebaudioside E conversion (UGTSL, UGTSL2, UGTLB lysates). Particulars: based on initial concentration of Rubusoside; reaction time 45 h. (UGTSL), 2 h. (UGTSL2). On the procedure: Activity tests were performed at 3 mL scale with 600 μL of lysate for the transformation of Rubusoside using 0.5 mM of substrate, 2.5 mM of UDP-Glucose and 3 mM MgCl2 in 50 mM Sodium Phosphate buffer at pH 7.2. The HPLC assay was performed as described in EXAMPLE 20.
Activity tests were performed at 3 mL scale with 600 μL of lysate for the transformation of Rubusoside using 0.5 mM of substrate, 2.5 mM of UDP-Glucose and 3 mM MgCl2 in 50 mM Sodium Phosphate buffer at pH 7.2. Samples were taken and analyzed by HPLC. The corresponding chromatogram is depicted in FIG. 65.

Data set [3] can be described thus: LCMS of Rubusoside conversion products with UGTSL, UGTSL2, UGTLB. Particulars: UGTSL2 2 hrs, UGTLB 5 hrs, UGTSL 45 hrs. On the procedure:
(§1) Conversion of stevioside with UGTSL and UGTSL2 was conducted in similar manner to Example 28, and the conversion of rubusoside with UGTSL and UGTSL2 was conducted similarly to Example 29. Conversions of rubusoside and stevioside with UGTLB was conducted similarly to Example 32.
(§2) The reaction mixtures were analyzed by LCMS to determine all reaction products.

Data set [4] in a line: LCMS of Stevioside conversion products with UGTSL, UGTSL2, UGTLB. Particulars: UGTSL2 2 hrs, UGTLB 2 hrs, UGTSL 22 hrs. On the procedure: as §1, §2
Data set [5] can be described thus: LC-MS of Rebaudioside A reaction mixtures of GI No. 460409128 (Example 23). Particulars: for Steviol glycoside conversion in reaction mixture: Reb A: remaining substrate. On the procedure:
The reaction mixtures representing GI No. 460409128, particularly the sample “12400 S115N05A7 T24h 130627ABA” of EXAMPLE 20 (hereinafter S115N05A7), and the sample “12400 S129N04 T45h 130712ABA” of EXAMPLE 22 (hereinafter S129N04) were additionally assayed by LC-MS to identify the unknown glycosides. An Agilent 1200 series HPLC system, equipped with binary pump (G1312B), autosampler (G1367D), thermostatted column compartment (G1316B), DAD detector (G1315C), connected with Agilent 6110A MSD, and interfaced with “LC/MSD Chemstation” software, was used.

B1: S115N06 C2: UDP-glucoronosyl/UDP-glucosyl transferase family protein, Arabidopsis lyrata subsp. lyrata, SEQ ID 7 (protein, listed as Arabidopsis lyrata)
chain: MDDKKEEVMHIAMFPWLAMGHLLPFLRLSKLLAQKGHKISFISTPRNILRLPKLPSNLSSSITFVSFPLPSISGLPPSSESSMDVPYNKQQSLKAAFDLLQPPLTEFLRLSSPDWIIYDYASHWLPSIAKELGISKAFFSLFNAATLCFMGPSSSLIEESRSTPEDFTVVPPWVPFKSTIVFRYHEVSRYVEKTDEDVTGVSDSVRFGYTIDGSDAVFVRSCPEFEPEWFSLLQDLYRKPVFPIGFLPPVIEDDDDDTTWVRIKEWLDKQRVNSVVYVSLGTEASLRREELTELALGLEKSETPFFWVLRNEPQIPDGFEERVKGRGMVHVGWVPQVKILSHESVGGFLTHCGWNSVVEGIGFGKVPIFLPVLNEQGLNTRLLQGKGLGVEVLRDERDGSFGSDSVADSVRLVMIDDAGEEIREKVKLMKGLFGNMDENIRYVDELVGFMRNDESSQLKEEEEEDDCSDDQSSEVSSETDEKELNLDLKEEKRRISVYKSLSSEFDDYVANEKMG
Regarding B1, in data set [1], the “Steviol glycoside conversion in reaction mixture: Reb D” value (“Steviol glycoside conversion … Reb D” for short) is listed as 0.28 % area, the “Steviol glycoside conversion in reaction mixture: Reb UNK” value (shortened to “Steviol glycoside conversion … Reb UNK”) is listed as 3.9 % area and the “Steviol glycoside conversion in reaction mixture: Reb A” value (from here on “Steviol glycoside conversion … Reb A”) came to 95.8 % area.

B2: UGTSL2: Solanum lycopersicum UDP-glucosyltransferase GI_460410132, SEQ ID 9, E. coli lysate (protein, listed as Escherichia coli)
chain: MATNLRVLMFPWLAYGHISPFLNIAKQLADRGFLIYLCSTRINLESIIKKIPEKYADSIHLIELQLPELPELPPHYHTTNGLPPHLNPTLHKALKMSKPNFSRILQNLKPDLLIYDVLQPWAEHVANEQNIPAGKLLTSCAAVFSYFFSFRKNPGVEFPFPAIHLPEVEKVKIREILAKEPEEGGRLDEGNKQMMLMCTSRTIEAKYIDYCTELCNWKVVPVGPPFQDLITNDADNKELIDWLGTKHENSTVFVSFGSEYFLSKEDMEEVAFALELSNVNFIWVARFPKGEERNLEDALPKGFLERIGERGRVLDKFAPQPRILNHPSTGGFISHCGWNSAMESIDFGVPIIAMPIHNDQPINAKLMVELGVAVEIVRDDDGKIHRGEIAETLKSVVTGETGEILRAKVREISKNLKSIRDEEMDAVAEELIQLCRNSNKSK
With B2, the “Rubusoside conv. (reactiontime)” value in data set [2] is recorded as 80% (2 h.). In data set [3], the “LC-MS, peak area ratio (%) Reb D” value is recorded as 6.73%; the “LC-MS, peak area ratio (%) Reb E” value was 52.88%; the “LC-MS, peak area ratio (%) Rub” value came out at 3.54%; the “LC-MS, peak area ratio (%) Stev” value was found to be 2.12%. For the same molecule, in data set [3], the “LC-MS, peak area ratio (%) Unknown peak #1 (MW804) RT 30.70 min” value was 12.02%; the “LC-MS, peak area ratio (%) Unknown peak #2 (MW804) RT 49.50 min” value stood at 9.94%; the “LC-MS, peak area ratio (%) Unknown peak #3 (MW804) RT 50.40 min” value was 12.77%. Besides, in data set [4], the “LC-MS, peak area ratio (%) Reb D” value is 1.70%; the “LC-MS, peak area ratio (%) Reb E” value is 42.56%; the “LC-MS, peak area ratio (%) Stev” value turned out to be 20.01%; the “LC-MS, peak area ratio (%) Unknown peak #1 (MW966) RT = 22.60 min” value was 4.48%. In addition, in data set [4], the “LC-MS, peak area ratio (%) Unknown peak #2 (MW966) RT = 26.50 min” value stood at 5.56% and the “LC-MS, peak area ratio (%) Unknown peak #3 (MW966) RT = 29.50 min” value came out at 25.70%.

B3: S115N06 E1: hypothetical protein OsJ_04191, Oryza sativa Japonica Group, SEQ ID 6 (protein, listed as Oryza sativa)
chain: MHVVMLPWLAFGHILPFAEFAKRVARQGHRVTLFSTPRNTRRLIDVPPSLAGRIRVVDIPLPRVEHLPEHAEATIDLPSNDLRPYLRRAYDEAFSRELSRLLQETGPSRPDWVLADYAAYWAPAAASRHGVPCAFLSLFGAAALCFFGPAETLQGRGPYAKTEPAHLTAVPEYVPFPTTVAFRGNEARELFKPSLIPDESGVSESYRFSQSIEGCQLVAVRSNQEFEPEWLELLGELYQKPVIPIGMFPPPPPQDVAGHEETLRWLDRQEPNSVVYAAFGSEVKLTAEQLQRIALGLEASELPFIWAFRAPPDAGDGDGLPGGFKERVNGRGVVCRGWVPQVKFLAHASVGGFLTHAGWNSIAEGLANGVRLVLLPLMFEQGLNARQLAEKKVAVEVARDEDDGSFAANDIVDALRRVMVGEEGDEFGVKVKELAKVFGDDEVNDRYVRDFLKCLSEYKMQRQG
With B3, in data set [1], the “Steviol glycoside conversion … Reb D” value is 0.14 % area, the “Steviol glycoside conversion … Reb UNK” value is 7.0 % area and the “Steviol glycoside conversion … Reb A” value turned out to be 92.8 % area.

B4: S115N05 A7: UGTSL, Solanum lycopersicum glycosyltransferase, SEQ ID 5; S129N04 is the sample of the in-vivo produced enzyme (protein, listed as Solanum lycopersicum)
chain: MSPKLHKELFFHSLYKKTRSNHTMATLKVLMFPFLAYGHISPYLNVAKKLADRGFLIYFCSTPINLKSTIEKIPEKYADSIHLIELHLPELPQLPPHYHTTNGLPPNLNQVLQKALKMSKPNFSKILQNLKPDLVIYDILQRWAKHVANEQNIPAVKLLTSGAAVFSYFFNVLKKPGVEFPFPGIYLRKIEQVRLSEMMSKSDKEKELEDDDDDDDLLVDGNMQIMLMSTSRTIEAKYIDFCTALTNWKVVPVGPPVQDLITNDVDDMELIDWLGTKDENSTVFVSFGSEYFLSKEDMEEVAFALELSNVNFIWVARFPKGEERNLEDALPKGFLERIGERGRVLDKFAPQPRILNHPSTGGFISHCGWNSAMESIDFGVPIIAMPMHLDQPMNARLIVELGVAVEIVRDDDGKIHRGEIAETLKGVITGKTGEKLRAKVRDISKNLKTIRDEEMDAAAEELIQLCRNGN
In the case of B4, the “Rubusoside conv. (reactiontime)” value in data set [2] was 70% (45 h.). For the same molecule, in data set [3], the “LC-MS, peak area ratio (%) Reb D” value is listed as 3.45%; the “LC-MS, peak area ratio (%) Reb E” value came out at 35.88%; the “LC-MS, peak area ratio (%) Rub” value stood at 7.82%; the “LC-MS, peak area ratio (%) Stev” value amounted to 2.37%. Besides, in data set [3], the “LC-MS, peak area ratio (%) Unknown peak #1 (MW804) RT 30.70 min” value was determined as 20.38%; the “LC-MS, peak area ratio (%) Unknown peak #2 (MW804) RT 49.50 min” value came to 27.75%; the “LC-MS, peak area ratio (%) Unknown peak #3 (MW804) RT 50.40 min” value is reported as 2.35%. In data set [4], the “LC-MS, peak area ratio (%) Reb D” value was 0.54%; the “LC-MS, peak area ratio (%) Reb E” value is 49.68%; the “LC-MS, peak area ratio (%) Stev” value worked out at 25.24%; the “LC-MS, peak area ratio (%) Unknown peak #1 (MW966) RT = 22.60 min” value stood at 3.97%. The “LC-MS, peak area ratio (%) Unknown peak #2 (MW966) RT = 26.50 min” value in data set [4] is 20.56%. For the same molecule, in data set [1], the “Steviol glycoside conversion … Reb UNK” value turned out to be 23.3 % area and the “Steviol glycoside conversion … Reb A” value turned out to be 46.7 % area. For the same molecule, in data set [5] (Reb UNK later identified as reb D2, listed as S115N05A7), the “Steviol glycoside conversion … Reb UNK” value is 19.93 % area. Also, the “Steviol glycoside conversion … Reb UNK” value in data set [5] (Reb UNK later identified as reb D2, listed as S129N04) is given as 21.22 % area. For the same molecule, in data set [5] (listed as S115N05A7), the “Steviol glycoside conversion … Reb D” value is on record as 20.35 % area and the “Steviol glycoside conversion … Reb A” value came out at 53.24 % area. For the same molecule, in data set [5] (listed as S129N04), the “Steviol glycoside conversion … Reb D” value came to 23.73 % area and the “Steviol glycoside conversion … Reb A” value amounted to 49.00 % area. Moreover, the “Steviol glycoside conversion in reaction mixture: Unknown@RT3.5” value in data set [5] (unknown later identified as reb M2, listed as S115N05A7) is on record as 6.47 % area. In data set [5] (unknown later identified as reb M2, listed as S129N04), the “Steviol glycoside conversion in reaction mixture: Unknown@RT3.5” value was 6.05 % area.
